Assay results taken from the emibetuzumab library of Makowski et al. (2022).

B1: VH:VL chains; a variant is named by its letters at X, in order (parent)
chain 1: QVQLVQSGAEVKKPGASVKVSCKASGYTFTDYXMHWVRQAPGQGLEWMGXVNPNXXXTTYNQKFEGRVTMTTDTSTSTAYMELRSLRSDDTAVYYCARXNXLDXWGQGTTVTVSS
chain 2: DIQMTQSPSSLSASVGDRVTITCSVSSSVSSIYLHWYQQKPGKAPKLLIYSTSNLASGVPSRFSGSGSGTDFTLTISSLQPEDFATYYCQVYSGYPLTFGGGTKVEIK

Variants of: B1
Experiment: yeast display scFab, FACS + sequencing
In short: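 Non-specific binding was called from deep sequencing of sorted yeast cells displaying a heavy-chain CDR mutant scFab library. Cells labelled with anti-Myc and biotinylated ovalbumin (260 μg/mL in PBSB, 3 h, room temperature) or soluble membrane proteins (130 μg/mL, 20 min on ice) were FACS-sorted, collecting the top 25% and bottom 10% of binders from two replicates. A sequence was positive when present in ≥3 of 4 pooled positive samples and absent from all negatives, and negative under the converse rule.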

Row | Variant | non-specific binding call
1 | VEGGGAGV | no binding
2 | VEEEGDWV | no binding
3 | VEEEGDWD | no binding
4 | VATTDSVD | no binding
5 | DEAKAAVD | binds
6 | FEERNSLD | binds
7 | FEETDAGD | binds
8 | SEARSAVV | no binding
9 | SEARSAVA | no binding
10 | SEARSAVY | no binding
11 | SEARSAVS | no binding
12 | VEGAADVD | no binding
13 | VEGGGAAA | no binding
14 | VEGGGAAS | no binding
15 | YEAGTAVA | no binding
16 | VEGGGSSA | no binding
17 | VEGGGSSS | no binding
18 | VEGGGSSV | no binding
19 | SEARSSSA | no binding
20 | SEARSSSY | no binding
21 | SEARSSSD | no binding
22 | SEARSSSV | no binding
23 | SEARSSSF | no binding
24 | VEEEGDAV | no binding
25 | VEEEGDAA | no binding

Row | Variant | non-specific binding call
26 | VEEEGSWV | no binding
27 | DEARGAGD | no binding
28 | VEGGGSGV | no binding
29 | SEARSDAS | no binding
30 | SEARSDAA | no binding
31 | SEARSDAV | no binding
32 | SEARSDAD | no binding
33 | SEARSYAV | no binding
34 | VEEEGDGA | no binding
35 | VEEEGDGV | no binding
36 | VEGGGFAY | no binding
37 | VEAGDDWV | no binding
38 | FEAESYGV | binds
39 | YEGGGDGA | no binding
40 | YEGGGDGD | no binding
41 | SEARSDSF | no binding
42 | SEARSDSV | no binding
43 | SEARSSGV | no binding
44 | SEARSSGY | no binding
45 | SEARSSGF | no binding
46 | VEAGDSWV | no binding
47 | AEERASAF | binds
48 | YEERTAAA | binds
49 | FEARDYWD | binds
50 | VEERDAGD | no binding

Row | Variant | non-specific binding call
51 | DATTDSVD | no binding
52 | DEEEGSAA | no binding
53 | YEEGTDWY | no binding
54 | VEAGDALV | no binding
55 | SEEEGASV | no binding
56 | SEEASAVY | no binding
57 | YEGGGFSV | no binding
58 | VEAGDAVA | no binding
59 | VEGGGYGV | no binding
60 | FEAGDDGV | no binding
61 | SEARSSLA | no binding
62 | SEARSSLV | no binding
63 | YEARNAGA | no binding
64 | DEGGDDAA | no binding
65 | VEGGGSVD | no binding
66 | VEGGGAWA | no binding
67 | SATTDSVD | no binding
68 | VEGADAVA chain 1 G106S | no binding
69 | YEGGGSSA | no binding
70 | FATTDSVD | no binding
71 | AEARAAGS chain 1 V37I | binds
72 | SEAGDAVV | no binding
73 | VEAGSDGV | no binding
74 | VEAGDAAA | no binding
75 | VEAGDAAV | no binding

Row | Variant | non-specific binding call
76 | SEEEGSGV | no binding
77 | AEEKGSGD | no binding
78 | SEARSAGV | no binding
79 | DEAGGDGY | no binding
80 | AEEEGSAA | no binding
81 | DEAGDAVV | no binding
82 | DEARSDGA | no binding
83 | SEARSAWA | no binding
84 | SEARSAWS | no binding
85 | VEGGGDWS | no binding
86 | VEGGGDWA | no binding
87 | DEETNSGA | binds
88 | SEARSSAS | no binding
89 | SEARSSAD | no binding
90 | VEGGADVF | no binding
91 | DEARNAGA | no binding
92 | DEGGGAGS | no binding
93 | AATTSFVV | no binding
94 | SEARNDGA | no binding
95 | SEEASSSA | no binding
96 | VEERDDWF | no binding
97 | VEEEGALD | no binding
98 | SEARSDGS | no binding
99 | SEARSDGY | no binding
100 | SEARSDGF | no binding

Row | Variant | non-specific binding call
101 | VEGGGAVV | no binding
102 | SEGGDAWV | no binding
103 | YEGGGDLV | no binding
104 | VEEEGDSA | no binding
105 | YEGGGDVA | no binding
106 | YEGGGDVY | no binding
107 | SEARSAAV | no binding
108 | VEGGGDGA | no binding
109 | VEGGGDGD | no binding
110 | VEGGGDGV | no binding
111 | VEGGGDAA | no binding
112 | VEAGDDAA | no binding
113 | VEAGDDAV | no binding
114 | SEARNAGD | no binding
115 | SEARSFGV | no binding
116 | SEEGTAGD | no binding
117 | SEEGTAGA | no binding
118 | SEEEGDWV | no binding
119 | SEEEGAGD | no binding
120 | YEGAASWF | no binding
121 | FEATAAGS | binds
122 | SEARSDWV | no binding
123 | SEARSDWD | no binding
124 | SEARSDWF | no binding
125 | SEARSDWA | no binding

Row | Variant | non-specific binding call
126 | VEGEDAGA | no binding
127 | VEEAAAGV | no binding
128 | SEGADAVA chain 1 G106S | no binding
129 | VEGGGDVV | no binding
130 | VEGGGDVA | no binding
131 | VEGGGDVD | no binding
132 | VEGGGDVY | no binding
133 | YEGGGSAV | no binding
134 | VEGAASWV | no binding
135 | VEGAASWF | no binding
136 | SEGADAGD | no binding
137 | AATTDSVD | no binding
138 | VEEASSWA | no binding
139 | VEARNDWA chain 1 M81I | binds
140 | SEEEGDVA | no binding
141 | AEAGDAVV | no binding
142 | VEEEDYSS | binds
143 | VEAGDSLD | no binding
144 | SEARSYLV | no binding
145 | VEAGDDGA | no binding
146 | SEARSDVY | no binding
147 | SEARSDVD | no binding
148 | SEARSDVF | no binding
149 | SEARSDVV | no binding
150 | SEEASDGA | no binding

Row | Variant | non-specific binding call
151 | VEGGGFSV | no binding
152 | VEAGDDVY | no binding
153 | VEAGDDVV | no binding
154 | SEGGDAGD | no binding
155 | VEEEGSAD | no binding
156 | VEEEGSAV | no binding
157 | VEGEDAAA | no binding
158 | YATTSFSF | no binding
159 | AEERDSVV | no binding
160 | AEARSDGA | no binding
161 | VEGAAAGS | no binding
162 | VEETSSLD | no binding
163 | SEEEGSAA | no binding
164 | FEATASWS | binds
165 | DEGAGDGF | binds
166 | VEEEGSVD | no binding
167 | VEEEGSVS | no binding
168 | VEEEGSVV | no binding
169 | VEERDAVA | no binding
170 | YEERSDAF | no binding
171 | VEAGTAVA | no binding
172 | DEGGGSSA | no binding
173 | SEEGTDGV | no binding
174 | VEAGDSSA | no binding
175 | VEAGDSSS | no binding

Row | Variant | non-specific binding call
176 | YEGGGDWV | no binding
177 | YEGGGDWF | no binding
178 | DEGGDAGD | no binding
179 | FEEGTDWY | no binding
180 | SEARSSWS | no binding
181 | SEARSSWV | no binding
182 | VEARNAGA | no binding
183 | VEEEGAGD | no binding
184 | VEEEGAGV | no binding
185 | VEEEAFAV | no binding
186 | VEEEGDVA | no binding
187 | VEEEGDVY | no binding
188 | SEARSDLY | no binding
189 | SEARSDLA | no binding
190 | VEARGDGA | no binding
191 | DEGEDAGA | no binding
192 | VEEEGSGA | no binding
193 | VEEEGSGV | no binding
194 | DEGGGDGA | no binding
195 | SEARSYVV | no binding
196 | SEEGSDAS | no binding
197 | VEAGDAGD | no binding
198 | VEAGDAGS | no binding
199 | AEAGADVV | no binding
200 | SEEEGDAV | no binding

Row | Variant | non-specific binding call
201 | VEAGDDSA | no binding
202 | DEEASSWA | no binding
203 | FEETDASA | binds
204 | YEGGADVF | no binding
205 | YEGGADVV | no binding
206 | YEGGADVA | no binding
207 | YEGGADVD | no binding
208 | SEARSALD | no binding
209 | SEARSALA | no binding
210 | SEARSALV | no binding
211 | YEGGGYSF | no binding
212 | SEEGTDWD | no binding
213 | SEEGTDWY | no binding
214 | VEARGDWV | no binding
215 | FEEEGSAA | no binding
216 | DEAGTAVA | no binding
217 | FEAGDSGA | no binding
